Source: patent publication US8058396B2, “Cystatin C as an antagonist of TGF-β and methods related thereto” (National Jewish Health, priority 2003, dated 2011)
Where a SMILES comes first, the peptide text is derived from it.

Experiments:
[1] = test system: HT1080 fibrosarcoma cells; experiment: HT1080 cell invasion through Matrigel matrices; assay type: cell-based, human; conditions: treatment of HT1080 cells with inhibitor
Method: (§1) The effect CystC and D14CystC on the invasion of HT1080 and 3T3-L1 cells was determined as described previously (42). Briefly, upper chambers were coated with 100 μl of diluted Matrigel (1:50 in serum-free media), which was allowed to evaporate to dryness overnight at room temperature. The following morning the Matrigel mixtures were rehydrated and subsequently cultured with control-, CystC-, or D14CystC-expressing HT1080 or 3T3-L1 cells at a density of 100,000 cells/chamber. Cellular invasion was stimulated by addition of 2% serum to the lower chambers. Forty-eight hr later, the cells were washed twice in ice-cold PBS and immediately fixed for 15 min with 95% ethanol. Cells remaining in the upper chambers were removed with a cotton swab, whereas those remaining in the lower chamber were stained with crystal violet. Quantifying invading cells was determined through two independent measures, which yielded identical results: (i) manual counting under a light microscope, and (ii) crystal violet dye extraction by incubation of the membranes in 10% acetic acid, followed by spectrophotometry at 590 nm.
Cathepsin B is a lysosomal cysteine proteinase that functions in intracellular protein catabolism, as well as in bone resorption, hormone activation, and antigen processing (5). During tumorigenesis, cancer cells express a cathepsin B splice variant whose protein product is secreted into the extracellular milieu (5) and localized to the leading edge of invasive tumors (19), thereby promoting cancer cell invasion and metastasis. However, recent evidence has questioned the role of intracellular versus extracellular cathepsin B in promoting cancer cell invasion (20). To distinguish between these two possibilities, human HT1080 fibrosarcoma cells that stably express the murine ecotropic receptor (21) were infected with control (i.e., GFP), CystC, or Δ14CystC retrovirus. Afterward, cells that expressed GFP were isolated by flow cytometry to establish stable polyclonal populations of control-, CystC-, and Δ14CystC-expressing HT1080 cells (data not shown). The inventor chose to study HT1080 cells because they are highly invasive, and because they express large quantities of secreted cathepsin B and comparably little CystC (22). Thus, if extracellular cathepsin B mediates HT1080 cell invasion, it was hypothesized that overexpression of secreted CystC would attenuate their invasion through synthetic basement membranes.
Briefly, GFP-, CystC-, or Δ14CystC-expressing HT0180 cells were allowed to invade through Matrigel-coated membranes for 48 hr. Data shown in FIG. 1A are the mean (±SE) of three (Δ14CystC) and nine (GFP and CystC) independent experiments presented as the percent invasion relative to GFP-expressing HT1080 cells (***, p<0.05; Student's T-Test).

[2] = test system: TGF-β receptors (TβR-I, TβR-II, TβR-III); experiment: Iodinated TGF-β1 radioligand binding and cross-linking assay on Mv1Lu cells; parameters: species or system mink; conditions: [125I]TGF-β1 200 pM, recombinant protein 0-10 μg/ml, 3 hr at 4° C.
Method: Mink lung Mv1Lu epithelial cells were plated onto 6-well plates and grown until 90% confluency. The radioligand binding and cross-linking of iodinated TGF-β1 (200 pM) to Mv1Lu cells in the absence or presence of increasing concentration of recombinant GST-Jun(1-79) or -CystC was performed as described previously (44). Afterward, cytokine:receptor complexes contained in detergent-solubilized whole cell extracts were isolated by immunoprecipitation with anti-TβR-II antibodies as described previously (44). TGF-β1 bound to cell surface TβR-I, TβR-II, and TβR-III was visualized by exposure of the dried gels to a phosphor screen, which were developed 1-3 d later on a Molecular Dynamic Typhoon Scanner. Total bound TGF-β1 was defined as the sum of signal intensities for TGF-β1 cross-linked to TβR-I, TβR-II, and TβR-III in each condition.
Mink lung Mv1Lu epithelial cells were incubated for 3 hr at 4° C. with [125I]TGF-β1 (200 pM) in the absence or presence of increasing concentrations (0-10 μg/ml; 0, 0.5, 1, 5, 10) of recombinant Jun(1-79) or CystC. Cytokine:receptor complexes were cross-linked by addition of disuccinimidyl suberate, and subsequently isolated from detergent-solubilized whole cell extracts by immunoprecipitation with anti-TβR-II antibodies. […]

3T3-L1 fibroblasts = experiment: 3T3-L1 cell invasion through Matrigel matrices; assay type: cell-based, murine; conditions: recombinant protein 10 mg/ml; TGF-β1 5 ng/ml; 48 hr
Method: as §1
In some experiments, the effects of recombinant CystC and D14CystC on 3T3-L1 cell invasion was examined. To do so, 3T3-L1 cells (100,000 cells/chamber) were allowed to invade through Matrigel […], together with or without 5 ng/ml of TGF-β1. All subsequent procedures were performed as described above.
GFP-, CystC-, or Δ14CystC-expressing 3T3-L1 cells were allowed to invade through Matrigel-coated filters in the absence or presence of TGF-β1 (5 ng/ml) for 48 hr, and the results are shown in FIG. 2A. […] Data are the mean (±SE) of four independent experiments presented as the percent invasion relative to GFP-expressing 3T3-L1 cells.
Moreover, the inhibitory effects of CystC on 3T3-L1 cell invasion could be recapitulated by addition of recombinant CystC fusion proteins. Control or TGF-β1-stimulated (5 ng/ml) 3T3-L1 cells were allowed to invade through Matrigel-coated filters for 48 hr in the absence or presence of recombinant (10 mg/ml) GST, GST-CystC, or GST-D14CystC as indicated in FIG. 2B. […] Data are the mean (±SE) of three independent experiments presented as the percent invasion relative to untreated 3T3-L1 cells. […] Collectively, these findings indicate that 3T3-L1 cell invasion proceeds through cathepsin B-dependent and TGF-β-dependent pathways.

TGF-β signaling = experiment: p3TP-luciferase reporter gene assay in 3T3-L1 cells; assay type: cell-based, murine; conditions: recombinant protein 10 mg/ml; TGF-β1 5 ng/ml; 3T3-L1 cells; p<0.05
Method: Analysis of luciferase activity driven by the synthetic p3TP reporter ((26); generously provided by Dr. Joan Massague, Sloan Kettering) was performed as described previously (42). Briefly, control, CystC-, or Δ14CystC-expressing 3T3-L1 or HT1080 cells were cultured onto 24-well plates at a density of 45,000 cells/well and allowed to adhere overnight. The cells were transiently transfected the following morning by overnight exposure to LT1 liposomes (Mirus) containing 300 ng/well p3TP-luciferase and 100 ng/well of pCMV-β-gal. Afterward, the cells were washed twice with PBS and stimulated overnight in serum-free media with increasing concentrations of TGF-β1 as indicated. The following morning, luciferase and β-gal activities contained in detergent-solubilized cell extracts were determined.
In some experiments, the effects of recombinant CystC and D14CystC on p3TP-luciferase activity 3T3-L1 cells was determined. […] All subsequent procedures were performed as described above.
The present inventor's findings that TGF-β signaling was inhibited by CystC (FIGS. 1 and 2) independent of its actions on cathepsin B lead them to hypothesize CystC as a general antagonist of TGF-β signaling. To test this hypothesis, changes in p3TP-driven luciferase activity were monitored in control, CystC-, Δ14CystC-expressing cells before and after their stimulation with TGF-β. Briefly, GFP-, CystC-, or Δ14CystC-expressing 3T3-L1 cells were transiently transfected with p3TP-luciferase and pCMV-β-gal, and subsequently stimulated with increasing concentrations of TGF-β1 (0-5 ng/ml) as indicated in FIG. 3A. Afterward, luciferase and β-gal activities contained in detergent-solubilized cell extracts were measured. […] Data are the mean (±SE) luciferase activities of four independent experiments normalized to untreated GFP-expressing cells.
The transfectants were then stimulated with TGF-β1 (5 ng/ml) in the absence or presence of recombinant (10 mg/ml) GST, GST-CystC, or GST-D14CystC as indicated in FIG. 3B. […]

[3] = test system: NMuMG mammary epithelial cells; experiment: TGF-β-stimulated actin cytoskeletal reorganization (EMT) in NMuMG cells, rhodamine-phalloidin immunofluorescence; assay type: cell-based, murine; conditions: recombinant protein treatment 10 μg/ml; TGF-β1 5 ng/ml; NMuMG cells
Method: (§2) The ability of TGF-β to alter actin cytoskeletal architecture and E-cadherin expression was monitored essentially as described (Piek et al., 1999). Briefly, control-, CystC-, or Δ14CystC-expressing NMuMG cells were allowed to adhere overnight to glass coverslips in 24-well plates (50,000 cells/well). The cells were stimulated the following day with TGF-β1 (5 ng/ml) for 0-36 hours at 37° C. In some experiments, control NMuMG cells were stimulated with TGF-β1 in the absence or presence of 10 μg/ml of recombinant GST, GST-CystC, or GST-Δ14CystC. Upon completion of agonist stimulation, the cells were washed in ice-cold PBS and immediately fixed in 3.7% formaldehyde. After extensive washing in PBS, the cells were blocked in PBS supplemented with 1.5% FBS, followed by incubation with rhodamine-phalloidin (0.25 μM). […]
(§3) To test this hypothesis, the inventor first examined whether CystC and a CystC mutant impaired in its ability to inhibit cathepsin protease activity (i.e., Δ14CystC) could antagonize TGF-β stimulation of EMT in MECs. […] TGF-β stimulation of EMT is studied routinely in murine NMuMG MECs, which readily undergo EMT when treated with TGF-β (Piek et al., 1999; Miettinen et al., 1994; Gotzmann et al., 2004). […] E-cadherin expression was monitored by indirect immunofluorescence with anti-E-cadherin antibodies.
In another experiment, NMuMG cells were infected with ecotropic retrovirus encoding either GFP (i.e., control), CystC, or Δ14CystC, and subsequently were isolated by FACS-sorting for GFP expression to yield stable polyclonal populations of control, CystC, and Δ14CystC-expressing cells. The expression and secretion of recombinant CystC proteins by infected NMuMG and NRK cells was monitored by immunoblotting conditioned-media with anti-CystC antibodies. […] Next, the control, CystC-, and Δ14CystC-expressing NMuMG cells were incubated in the absence or presence of TGF-β1 (5 ng/ml) for 36 hours, whereupon E-cadherin expression was monitored by immunoblotting with anti-E-Cadherin antibodies. […]

[4] = test system: NMuMG mammary epithelial cells; experiment: TGF-β-mediated downregulation of E-cadherin in NMuMG cells; assay type: cell-based, murine; conditions: recombinant protein treatment 10 μg/ml; TGF-β1 5 ng/ml, 36 hours; NMuMG cells
Method: as §2
The ability of TGF-β to alter E-cadherin expression also was monitored by immunoprecipitating E-cadherin from Buffer H/1% Triton X-100-solubilized (Schiemann et al., 2003) NMuMG whole cell extracts, followed by immunoblotting with anti-E-cadherin antibodies (1:1000 dilution).
as §3
In another experiment, NMuMG cells were infected with ecotropic retrovirus encoding either GFP (i.e., control), CystC, or Δ14CystC, and subsequently were isolated by FACS-sorting for GFP expression to yield stable polyclonal populations of control, CystC, and Δ14CystC-expressing cells. The expression and secretion of recombinant CystC proteins by infected NMuMG and NRK cells was monitored by immunoblotting conditioned-media with anti-CystC antibodies. […]

CCCNC(=O)[C@H]1O[C@@H]1C(=O)N[C@H](C(=O)N1CCC[C@H]1C(=O)OC)[C@@H](C)CC [CA-074ME, reference compound]
HT1080 cell invasiveness ([1]; n=3): 101.0±5.6 % of control

CC(=O)N[C@@H](CC(C)C)C(=O)N[C@H](C(=O)N[C@H](C=O)CCCCN)C(C)C [cathepsin B inhibitor II, reference compound] (Ac-Leu-Val-Lys-aldehyde)
reduction of HT1080 cell invasion through Matrigel matrices ([1]; n=3, p<0.05): 47.1±8.5%

B1: recombinant Jun(1-79): recombinant GST-Jun(1-79) fusion protein, control in the TGF-β1 binding assay (protein)
chain: MTAKMETTFYDDALNASFLPSESGPYGYSNPKILKQSMTLNLADPVGSLKPHLRAKNSDLLTSPDVGLLKLASPELERL
modifications: left off: a dimerising Fc or GST
binding of iodinated TGF-β1 to its cell surface receptors [2]: no effect

B2: recombinant Δ14CystC: GST-CystC fusion protein with residues 80-93 deleted by site-directed mutagenesis, purified from E. coli (protein)
chain: MAGPLRAPLLLLAILAVALAVSPAAGSSPGKPPRLVGGPMDASVEEEGVRRALDFAVGEYNKASNDMYHSRALQVVRARLGRTTCTKTQPNLDNCPFHDQPHLKRKAFCSFQIYAVPWQGTMTLSKSTCQDA
modifications: left off: small tags and cut ends
notes: GST-CystC fusion protein with residues 80-93 deleted by site-directed mutagenesis, purified from E. coli
3T3-L1 cell invasion stimulated by serum:TGF-β (3T3-L1 fibroblasts): selectively blocked | luciferase activity stimulated by TGF-β (p3TP) (TGF-β signaling): significantly inhibited | actin cytoskeletal reorganization stimulated by TGF-β [3]: prevented | TGF-β-mediated downregulation of E-cadherin [4]: antagonized
